According to patent US8080531B2, “Methods for modulating checkpoint activation through TopBP1” (California Institute of Technology, priority 2006, dated 2011):

Key:
[1] = tested on: Xatr-Xatrip; assay: Kinase assay of Xatr-Xatrip complexes isolated from Xenopus egg extracts; format: biochemical; settings: for activation of Xatr kinase activity toward PHAS-I: isolated Xatr-Xatrip complexes, 32P-ATP, result in words; for ATR activation compared with the 972-1279 fragment: Xatr-XatripΔ222, PHAS-I, His6-human TopBP1 fragments
From the text: Specifically, Applicants first isolated Xatr from egg extracts by pull-downs with FLAG-tagged Xenopus ATRIP (Xatrip). For these experiments, Applicants used both full-length Xatrip and an N-terminal truncation mutant (ΔN222) that supports normal Xatr-dependent activation of Xchk1 in egg extracts (Kumagai et al., 2004; Kim et al., 2005).
Applicants eluted the beads with FLAG peptide and mixed the eluates with a His6-tagged version of XtopBP1 that had been purified from baculovirus-infected insect cells (FIG. 1B). Finally, Applicants added ^32P-ATP and PHAS-I, a commonly used model substrate for ATR (Abraham, 2001).
Xatrip-FLAG and XatripΔN222-FLAG (20 ng/μl each) were incubated in interphase extracts containing anti-FLAG M2 antibody beads (Sigma) for 60 min at room temperature. The beads were isolated and washed twice with buffer A (10 mM HEPES-KOH (pH 7.5), 150 mM NaCl, 0.1% CHAPS, and 2.5 mM EGTA) and twice with HEPES-buffered saline (HBS; 10 mM HEPES-KOH (pH 7.5) and 150 mM NaCl). Xatr-Xatrip complexes were eluted in one-tenth the volume of the egg extract in HBS containing 0.1 mg/ml 3×-FLAG peptide (Sigma) for 60 min at 4° C. Eluates (2 μl) were used for kinase assays as described below.
Samples were incubated in 20 μl kinase buffer (50 mM Tris-HCl (pH 7.5), 10 mM MgCl2, 1 mM dithiothreitol, 100 μM nonradioactive ATP, and 100 μCi/ml [γ-^32P]ATP) containing 12.5 μg/ml PHAS-I or 50 μg/ml GST-Xmcm2 (62-122) for 30 min at room temperature. GST-XtopBP1 (972-1279) was added at a final concentration of 100 μg/ml unless indicated otherwise. In some cases, GST-Xmcm2 (62-122), GST-Xchk1 (306-352), or full-length Xchk1-Myc-His6 were used as substrates with only […] nonradioactive ATP. Reactions were terminated by boiling in gel sample buffer.

[2] = tested on: Xchk1; assay: Ectopic phosphorylation of 35S-Xchk1 in Xenopus egg extracts without checkpoint-inducing DNA; format: biochemical; settings: 35S-Xchk1, tautomycin, no checkpoint-inducing DNA template
Protocol: Because the GST-XtopBP1 (972-1279) fragment could activate Xatr in vitro without the inclusion of DNA, Applicants reasoned that ectopic addition of this fragment to Xenopus egg extracts might also be able to trigger the Xatr-dependent phosphorylation of Xchk1 even in the absence of a checkpoint-inducing DNA template.
Extracts from Xenopus eggs were prepared as described (Kumagai and Dunphy, 2000). A DNA replication checkpoint response was induced by addition of 50 μg/ml aphidicolin into extracts containing demembranated sperm nuclei (3000 per μl) (Kumagai and Dunphy, 2000). To monitor DNA replication, extracts containing 1000 sperm nuclei/μl were incubated with [α-^32P]dATP (Yoo et al., 2004).

[3] = tested on: Xatr-Xatrip; assay: Glutathione bead pull-down of Xatr and Xatrip from egg extracts; format: binding, Xenopus; settings: egg extracts, immunoblotting
Protocol: Specifically, Applicants incubated glutathione beads containing GST-XtopBP1 (972-1279) in egg extracts, reisolated the beads, and performed immunoblotting for both Xatr and Xatrip. […] In addition, in other experiments, there was no binding of Xatr or Xatrip to beads containing GST fusions of the 1-348, 333-646, or 623-984 segments from XtopBP1 (data not shown).
Applicants also tested to see if the association of XtopBP1 with Xatr depends upon Xatrip. For this experiment, Applicants removed endogenous Xatrip from egg extracts by immunodepletion with anti-Xatrip antibodies. As described previously, this procedure leaves behind approximately 30% of the endogenous Xatr, the fraction that is not in a complex with Xatrip (Kumagai et al., 2004). Next, Applicants added GST-XtopBP1 (972-1279) to the Xatrip-depleted extracts and to mock-depleted extracts that had been prepared in parallel.

[4] = tested on: human Mcm2 on S108; assay: Phosphorylation of Mcm2 on S108 in transfected human 293T cells; format: cell-based
From the text: To pursue this issue further, Applicants asked whether the ATR-activating domain of TopBP1 could induce ATR-dependent phosphorylation in human cells. For this purpose, Applicants constructed a version of the enhanced green fluorescent protein (EGFP) containing the SV40 nuclear localization sequence and residues 978-1286 of human TopBP1 (equivalent to residues 972-1279 of XtopBP1). Applicants also produced the W1145R mutant of this plasmid (analogous to the W1138R mutant of XtopBP1). Applicants transfected plasmids encoding these proteins into human 293T cells and performed immunoblotting with anti-phosphopeptide antibodies that detect phosphorylation of human Mcm2 on S108 (which corresponds to S92 of Xmcm2) (Cortez et al., 2004; Yoo et al., 2004).
pEGFP-NLS-TopBP1 (978-1286), which encodes EGFP followed by a nuclear localization sequence (KKKRKV, SEQ ID NO: 11) and amino acids 978-1286 of human TopBP1, was prepared from pEGFP (Clontech) by standard polymerase chain reaction-based methods. Plasmids were transfected into 293T cells with Lipofectamine 2000 (Invitrogen).

Sequence of Xatr-Xatrip (Q9DE14 whole entry, the tested form may be a part): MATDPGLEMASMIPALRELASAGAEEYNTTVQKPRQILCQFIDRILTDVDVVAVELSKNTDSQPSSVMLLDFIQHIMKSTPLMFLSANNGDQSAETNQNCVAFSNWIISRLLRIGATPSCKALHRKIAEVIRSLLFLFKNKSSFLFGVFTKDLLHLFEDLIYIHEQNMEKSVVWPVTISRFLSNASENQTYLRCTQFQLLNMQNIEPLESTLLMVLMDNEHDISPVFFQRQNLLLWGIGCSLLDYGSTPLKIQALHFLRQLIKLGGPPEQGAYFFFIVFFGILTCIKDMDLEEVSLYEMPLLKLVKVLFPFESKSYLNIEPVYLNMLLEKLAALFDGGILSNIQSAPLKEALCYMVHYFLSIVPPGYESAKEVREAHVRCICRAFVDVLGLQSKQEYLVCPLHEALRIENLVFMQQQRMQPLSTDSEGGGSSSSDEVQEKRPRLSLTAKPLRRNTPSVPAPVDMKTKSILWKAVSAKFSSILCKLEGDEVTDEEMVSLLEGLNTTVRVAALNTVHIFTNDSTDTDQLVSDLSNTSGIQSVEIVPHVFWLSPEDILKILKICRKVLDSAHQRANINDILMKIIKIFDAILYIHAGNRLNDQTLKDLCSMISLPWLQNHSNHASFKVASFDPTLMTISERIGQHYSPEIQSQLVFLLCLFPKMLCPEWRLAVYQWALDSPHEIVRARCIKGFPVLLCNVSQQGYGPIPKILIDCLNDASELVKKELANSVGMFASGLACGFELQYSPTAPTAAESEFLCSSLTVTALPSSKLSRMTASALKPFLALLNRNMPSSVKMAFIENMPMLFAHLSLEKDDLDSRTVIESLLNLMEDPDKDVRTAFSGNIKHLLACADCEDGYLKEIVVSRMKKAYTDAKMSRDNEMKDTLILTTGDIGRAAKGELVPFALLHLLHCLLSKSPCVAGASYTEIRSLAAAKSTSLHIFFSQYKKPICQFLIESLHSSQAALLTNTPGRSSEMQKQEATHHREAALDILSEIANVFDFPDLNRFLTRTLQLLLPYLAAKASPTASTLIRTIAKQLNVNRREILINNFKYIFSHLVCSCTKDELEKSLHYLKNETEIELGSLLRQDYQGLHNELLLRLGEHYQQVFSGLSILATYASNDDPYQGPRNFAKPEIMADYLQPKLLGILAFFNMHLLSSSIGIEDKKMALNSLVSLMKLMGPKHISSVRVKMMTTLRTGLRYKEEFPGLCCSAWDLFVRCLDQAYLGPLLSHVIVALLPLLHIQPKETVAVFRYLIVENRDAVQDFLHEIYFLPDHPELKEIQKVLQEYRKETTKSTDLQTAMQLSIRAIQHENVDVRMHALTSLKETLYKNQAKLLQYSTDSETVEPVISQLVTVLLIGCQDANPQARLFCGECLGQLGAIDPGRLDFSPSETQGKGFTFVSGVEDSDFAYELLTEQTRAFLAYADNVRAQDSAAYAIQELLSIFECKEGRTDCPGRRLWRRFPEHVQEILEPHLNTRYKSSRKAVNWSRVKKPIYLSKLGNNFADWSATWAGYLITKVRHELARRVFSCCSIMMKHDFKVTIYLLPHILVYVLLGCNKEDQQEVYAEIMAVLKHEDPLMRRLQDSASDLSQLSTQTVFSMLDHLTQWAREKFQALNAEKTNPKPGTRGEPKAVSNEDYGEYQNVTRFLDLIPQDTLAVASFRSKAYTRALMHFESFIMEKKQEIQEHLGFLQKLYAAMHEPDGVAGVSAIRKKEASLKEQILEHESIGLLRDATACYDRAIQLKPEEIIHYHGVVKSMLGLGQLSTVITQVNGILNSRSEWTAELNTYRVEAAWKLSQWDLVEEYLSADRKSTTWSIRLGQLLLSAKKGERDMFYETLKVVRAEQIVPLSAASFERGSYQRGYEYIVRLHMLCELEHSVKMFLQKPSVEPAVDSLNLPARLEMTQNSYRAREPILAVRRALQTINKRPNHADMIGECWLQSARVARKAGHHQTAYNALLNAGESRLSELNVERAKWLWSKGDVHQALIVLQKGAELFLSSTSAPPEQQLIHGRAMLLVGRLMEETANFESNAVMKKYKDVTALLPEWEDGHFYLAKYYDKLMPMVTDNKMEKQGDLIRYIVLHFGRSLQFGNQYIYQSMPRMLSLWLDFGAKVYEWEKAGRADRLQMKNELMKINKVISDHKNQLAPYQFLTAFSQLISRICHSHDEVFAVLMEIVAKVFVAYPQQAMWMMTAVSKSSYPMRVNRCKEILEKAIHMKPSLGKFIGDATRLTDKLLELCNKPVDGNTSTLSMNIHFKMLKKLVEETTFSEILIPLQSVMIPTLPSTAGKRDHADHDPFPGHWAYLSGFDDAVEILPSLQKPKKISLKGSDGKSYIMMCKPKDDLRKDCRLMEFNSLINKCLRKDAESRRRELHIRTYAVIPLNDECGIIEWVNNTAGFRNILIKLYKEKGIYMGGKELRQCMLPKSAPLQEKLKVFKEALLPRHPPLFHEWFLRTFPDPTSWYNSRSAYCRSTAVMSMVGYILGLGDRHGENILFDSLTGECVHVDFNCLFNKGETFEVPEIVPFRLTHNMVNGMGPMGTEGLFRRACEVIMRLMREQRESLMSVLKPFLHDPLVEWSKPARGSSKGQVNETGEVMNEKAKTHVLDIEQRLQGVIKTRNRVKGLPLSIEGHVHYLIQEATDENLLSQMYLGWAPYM

For “human TopBP1 (residues 978-1192): GST fusion fragment of human TopBP1 (residues 978-1192) from between BRCT domains VI and VII”, the “activation of Xatr kinase activity toward PHAS-I” value [1] was “activated Xatr-Xatrip very effectively”.

“residues 978-1192: His6-Human TopBP1 fragment containing residues 978-1192” was tested, and the “ATR activation compared with the 972-1279 fragment” value [1] was “almost as effective as the 972-1279 fragment”.

B1: 1050-1286 fragment: His6-Human TopBP1 fragment, residues 1050-1286 (protein)
chain: NGSGKNDSKGVLTQTLEMRENFQKQLQEIMSATSIVKPQGQRTSLSRSGCNSASSTPDSTRSARSGRSRVLEALRQSRQTVPDVNTEPSQNEQIIWDDPTAREERARLASNLQWPSCPTQYSELQVDIQNLEDSPFQKPLHDSEIAKQAVCDPGNIRVTEAPKHPISEELETPIKDSHLIPTPQAPSIAFPLANPPVAPHPREKIITIEETHEELKKQYIFQLSSLNPQERIDYCHL
modifications: left off: small tags and cut ends
For B1, the “ATR activation compared with the 972-1279 fragment” value [1] was “significant reduction”.

B2: GST-XtopBP1 (1197-1513): GST fusion of XtopBP1 residues 1197-1513, containing two adjoining BRCT repeats (protein)
chain: EFEPKSAMRTPVIENNLQSPTKPDHLTPTPQAPSIAFPLANPPVAPQPREKPVQPFSKEETLKERRFQLSSLDPQERIDYSQLIEELGGVVIEKQCFDPSCTHIVVGHPLRNEKYLASMAAGKWVLHRSYLEACRAAKRFIQEEDYEWGSISILSAVTNINPQQRMLAEAAMRWRKKLQGIKQNMGIAEGAFSGWKVILNVDQTKEPGFKRLLQSGGAKVFAGHSSPLFKEASHLFADFSKLKPDEPRVNVAEAAAQGVNCLKPEYIADYLMKELPPPMNNYCLPDAIPYVRVTGTGLSRKRKTSGDVSDVKRSRHY
modifications: left off: a dimerising Fc or GST
notes: GST fusion of XtopBP1 residues 1197-1513, containing two adjoining BRCT repeats
With B2 the “activation of Xatr kinase activity toward PHAS-I” value [1] was “incapable of activating Xatr”, the “phosphorylation of Xchk1 in egg extracts” value [2] was “did not induce any phosphorylation” and the “binding of Xatr and Xatrip to glutathione beads” value [3] was “no binding”.

B3: residues 1050-1192: His6-Human TopBP1 fragment containing residues 1050-1192 (protein, UniProt Q92547 1050-1192, looked up, fragment)
chain: NGSGKNDSKGVLTQTLEMRENFQKQLQEIMSATSIVKPQGQRTSLSRSGCNSASSTPDSTRSARSGRSRVLEALRQSRQTVPDVNTEPSQNEQIIWDDPTAREERARLASNLQWPSCPTQYSELQVDIQNLEDSPFQKPLHDS
modifications: His6 tag
For B3, the “ATR activation compared with the 972-1279 fragment” value [1] was “almost as effective as the 972-1279 fragment”.

B4: XtopBP1Δ993-1196: full-length version of XtopBP1 in which most of the ATR-activating domain had been deleted (protein)
chain: MASSENEPFCVKFIKSPENSEYFFKAYEAIKQIQSDESLQLTEEREALLLKEKDKSLYICDPFSGAAFSHLKKLGCRIVGPQVVIFCMENQRRVPRAEYPVYNMAMADVTISCTSLDKETREDVHHYVQIMGGCVYRDLNVSVTHLIAGEVGSKKYLVAASLEKPILLPSWVKELWEKSNQRIIRYSDVNMTEYLCPIFRGCTICVTGLSSLDRKEVQRLTALHGGEYTGQLKMNESTHLIVQEAKGQKYECARKWNVHCISVQWFFDSIEKGFCQDETMYKIEPASTIKSVPDTSTPTGGNSKPNSRALYDVSQISNISTSCVNESAFNSAMASRLDPPADTLENLDISSLQAPDDLLDGCRIYLCGFGGRKLDKLRKLINNGGGVRFNQLTGDVTHIIVGETDEELKQFLNKTQHRPYVLTVKWLLDSFAKGHLQPEEIYFHSSYQQTEMPSPFEPAINLTANKMSSTRGPLNHTRNHQADEDLLSQYTENNSTLIEDEHPKTSNTNSISQMSMHEDMTTCTSQSGLADTSTIIEGGLFSRKQFMVLGFLEEDEACIIDIIKKSAGKVLSSQKRAIADYAVVPLLGCEVESTVGEVVTNAWLGMCIEQEKLLDPHSNALFTPVPFLEGSTPLRECVLSVSQFMGAERDSLVYLAGLLGAKVQEFFVRKANPKKGMFASTHLVLKDAEGSKYEAAKKWNLPAVTMNWLLQCARTGRKADEDSYLVDNVPEEDKDESFISQTYKPQAIRLSMHAPCHLENHPEALTKAAVTPLDMNRFKSKAFQSVISQHNKNPQTSGGESKVLQREPSLHLDTPSKFLSKDKLFKPSFDVKDALAALETPGGPNQKNRTQSTPLSEVIGRNLQLAIANSTRQTAAVTASPQLKAAEKKEFDNSKLLINVVICVSKKLIKKQGELNGIAASLGAEYRWCFDESVTHFIYHGRQNDMSREYKSVKERSGIYIVSEHWLFACSEQQKRVPEALYPHTYNPKMSLEFEPKSAMRTPVIENNLQSPTKPDHLTPTPQAPSIAFPLANPPVAPQPREKPVQPFSKEETLKERRFQLSSLDPQERIDYSQLIEELGGVVIEKQCFDPSCTHIVVGHPLRNEKYLASMAAGKWVLHRSYLEACRAAKRFIQEEDYEWGSISILSAVTNINPQQRMLAEAAMRWRKKLQGIKQNMGIAEGAFSGWKVILNVDQTKEPGFKRLLQSGGAKVFAGHSSPLFKEASHLFADFSKLKPDEPRVNVAEAAAQGVNCLKPEYIADYLMKELPPPMNNYCLPDAIPYVRVTGTGLSRKRKTSGDVSDVKRSRHY
modifications: left off: small tags and cut ends
In the case of B4, the “activation of Xatr kinase activity toward PHAS-I” value [1] is reported as “no Xatr-activating capacity”.

B5: wild-type 978-1286 fragment of human TopBP1: EGFP containing the SV40 nuclear localization sequence and residues 978-1286 of human TopBP1, expressed from transfected plasmid (protein)
chain: KKKRKVAQECKHLPESLYPHTYNPKMSLDISAVQDGRLCNSRLLSAVSSTKDDEPDPLILEENDVDNMATNNKESAPSNGSGKNDSKGVLTQTLEMRENFQKQLQEIMSATSIVKPQGQRTSLSRSGCNSASSTPDSTRSARSGRSRVLEALRQSRQTVPDVNTEPSQNEQIIWDDPTAREERARLASNLQWPSCPTQYSELQVDIQNLEDSPFQKPLHDSEIAKQAVCDPGNIRVTEAPKHPISEELETPIKDSHLIPTPQAPSIAFPLANPPVAPHPREKIITIEETHEELKKQYIFQLSSLNPQERIDYCHL
modifications: left off: large carriers
In the case of B5, the “phosphorylation of Mcm2 on S108” value ([4]; immunoblotting) is reported as “significantly elevated phosphorylation” and the “phosphorylation of S108” value ([4]; indirect immunofluorescence) is reported as “increase in the phosphorylation of S108”.

B6: 1008-1286 fragment: His6-Human TopBP1 fragment, residues 1008-1286 (protein)
chain: RLCNSRLLSAVSSTKDDEPDPLILEENDVDNMATNNKESAPSNGSGKNDSKGVLTQTLEMRENFQKQLQEIMSATSIVKPQGQRTSLSRSGCNSASSTPDSTRSARSGRSRVLEALRQSRQTVPDVNTEPSQNEQIIWDDPTAREERARLASNLQWPSCPTQYSELQVDIQNLEDSPFQKPLHDSEIAKQAVCDPGNIRVTEAPKHPISEELETPIKDSHLIPTPQAPSIAFPLANPPVAPHPREKIITIEETHEELKKQYIFQLSSLNPQERIDYCHL
modifications: left off: small tags and cut ends
For B6, the “ATR activation compared with the 972-1279 fragment” value [1] was “slight, but not very significant reduction”.
